In patent US20220041746A1 (Sanofi, published 2022):
Values belong to the binder of their own block, whether it stands above or below them.

Assays:
[1] = molecular target: T1, hCD38-his (SEQ ID NO: 2) (human, UniProt P28907 45-300); assay: ELISA (column ELISA EC50 nM, hu)
T1 construct: His-tagged soluble protein derived from isoform A; also called human CD38-histag; hCD38::Histag

[2] = molecular target: T2, cCD38-his (SEQ ID NO: 4) (cynomolgus monkey, UniProt Q5VAN0 46-301); assay: ELISA (column ELISA EC50 nM, cyno)
T2 construct: His-tagged soluble protein; also called cyno CD38-histag; cynoCD38::Histag

[3] = molecular target: T3, human CD38 expressed on the cell surface (human, UniProt P28907 1-300); assay: flow cytometry (column FACS EC50 nM, hu)
T3 construct: whole, on cells; also called hCD38-expressing cells; huCD38
Procedure: (§1) The recombinant cell line was described by J. Deckket et al. 2014 Clin Cancer Res 20:4574-4583. […] Antibody binding was evaluated after centrifugation and resuspension of cells by adding 200 μL/well PBS 1% BSA and read using Guava® easvCyte™ 8HT Flow Cytometry System. Apparent KD and EC50 values were estimated using BIOST@T-BINDING and BIOST@T-SPEED software, respectively.

[4] = molecular target: T3, human CD38 expressed on the cell surface; assay: flow cytometry on preB::300.19 cells, apparent KD
Procedure: as §1

[5] = molecular target: T4, cynomolgus monkey CD38 expressed on the cell surface (cynomolgus monkey, UniProt Q5VAN0 1-301); assay: flow cytometry on preB::300.19 cells, apparent KD
T4 construct: whole, on cells; also called cCD38-expressing cells
Procedure: as §1

[6] = molecular target: T4, cynomolgus monkey CD38 expressed on the …; assay: flow cytometry (column FACS EC50 nM, cyno)
Procedure: as §1

[7] = molecular target: T1, hCD38-his (SEQ ID NO: 2); assay: SPR, mAb captured via anti-human Fc, soluble CD38-his injected
Procedure: (§2) The binding properties of the anti-huCD38 mabs were evaluated using a BIAcore 2000 (BIAcore Inc., Uppsala, Ni). […] The surface was regenerated between injections using 30 μL of 50 mM NaOH-1 M NaCl. Individual sensorgrams wore analyzed using BIAsimulation software.

[8] = molecular target: T2, cCD38-his (SEQ ID NO: 4); assay: as above
Procedure: as §2

[9] = molecular target: human CD38 (Cambridge Biologics LLC Cat #03-01-0369) (human, UniProt P28907 43-300); assay: ELISA on coated hCD38-His
Procedure: The binding properties of the purified antibodies were analyzed either using ELISA or SPR methods. For ELISA, corresponding antigens for each binding site in the trispecific binding protein were used to coat a 96-well Immuno Plate (Nunc 439454, Thermo Fisher Scientific) overnight at 4° C. using 2 μg/ml each antigen m PBS(pH7.4). The coated plate was blocked using 5% skim milk 12% BSA in PBS for one hour at RT, followed by washing with PBS+[…] three times (Aqua Max 400, Molecular Devices). Serial dilution of antibodies (trispecific and control Abs) were prepared and added onto the ELISA plates (100 μl/well in duplicate), incubated at RT for one hour, followed by washing 5 times with PBS+0.25% Tween 20.
The reaction was terminated by adding 50 μl 1M H₂SO₄, and OD₄₅₀ was measured using SpectraMax M5 (Molecular Devices) and analyzed using SoltMax Pro6.3 software (Molecular Devices). The final data was transferred to GraphPad Prism software (GraphPad Software, CA. USA), and plotted as shown. EC50 was calculated using the same software.

[10] = molecular target: human CD28 (SPR of Example 4) (human, UniProt P10747 19-152, limits assumed); assay: SPR, mono-, bi- and trispecific formats (FIG. 5)

B1: mAb4 (antibody, human IgG1, kappa, V domains shown)
VH: QVQLVQSGAEVVKSGASVKVSCKASGYTFTSFNMHWVKEAPGQGLEWIGYIYPGNGGTNYNQKFQGRATLTADTSASTAYMEISSLRSEDTAVYFCARTGGLRRAYFTYWGQGTLVTVSS
VL: DIVLTQSPATLSLSPGERATISCRASESVDSYGNGFMHWYQQKPGQPPRLLIYLASSRATGIPARFSGSGSGTDFTLTISPLEPEDFAVYYCQQNKEDPWTFGGGTKLEIKR
notes: also called antiCD38_C2-CD38-1_VH5-VL3
EC50 [1]: 0.16 nM
EC50 [2]: 0.17 nM
EC50 [3]: 0.55 nM
Kd [4]: 0.33 nM
Kd [5]: 1.15 nM
EC50 [6]: 1.15 nM
Kd [7]: 0.822 nM
koff [7]: 0.000529 s⁻¹
Kd [8]: 1.14 nM
koff [8]: 0.000201 s⁻¹

B2: mAb2xCD28supxCD3mid IgG4 FALA (other)
heavy 1: QVQLVQSGAEVVKPGASVKVSCKASGYTFTSYYIHWVRQAPGQGLEWIGSIYPGNVNTNYAQKFQGRATLTVDTSISTAYMELSRLRSDDTAVYYCTRSHYGLDWNFDVWGKGTTVTVSSSQVQLVESGGGVVQPGRSLRLSCAASGFTFTKAWMHWVRQAPGKQLEWVAQIKDKSNSYATYYADSVKGRFTISRDDSKNTLYLQMNSLRAEDTAVYYCRGVYYALSPFDYWGQGTLVTVSSRTASTKGPSVFPLAPCSRSTSESTAALGCLVKDYFPEPVTVSWNSGALTSGVHTFPAVLQSSGLYSLSSVVTVPSSSLGTKTYTCNVDHKPSNTKVDKRVESKYGPPCPPCPAPEAAGGPSVFLFPPKPKDTLMISRTPEVTCVVVDVSQEDPEVQFNWYVDGVEVHNAKTKPREEQFNSTYRVVSVLTVLHQDWLNGKEYKCKVSNKGLPSSIEKTISKAKGQPREPQVCTLPPSQEEMTKNQVSLSCAVKGFYPSDIAVEWESNGQPENNYKTTPPVLDSDGSFFLVSKLTVDKSRWQEGNVFSCSVMHEALHNHYTQKSLSLSLG
light 1: DIVMTQTPLSLSVTPGQPASISCKSSQSLVHNNANTYLSWYLQKPGQSPQSLIYKVSNRFSGVPDRFSGSGSGTDFTLKISRVEAEDVGVYYCGQGTQYPFTFGSGTKVEIKGQPKAAPDIQMTQSPSSLSASVGDRVTITCQASQNIYVWLNWYQQKPGKAPKLLIYKASNLHTGVPSRFSGSGSGTDFTLTISSLQPEDIATYYCQQGQTYPYTFGQGTKLEIKTKGPSRTVAAPSVFIFPPSDEQLKSGTASVVCLLNNFYPREAKVQWKVDNALQSGNSQESVTEQDSKDSTYSLSSTLTLSKADYEKHKVYACEVTHQGLSSPVTKSFNRGEC
heavy 2: QVQLVQSGAEVVKPGASVKVSCKASGYTFTSYAMHWVKEAPGQRLEWIGYIYPGQGGTNYNQKFQGRATLTADTSASTAYMELSSLRSEDTAVYFCARTGGLRRAYFTYWGQGTLVTVSSASTKGPSVFPLAPCSRSTSESTAALGCLVKDYFPEPVTVSWNSGALTSGVHTFPAVLQSSGLYSLSSVVTVPSSSLGTKTYTCNVDHKPSNTKVDKRVESKYGPPCPPCPAPEAAGGPSVFLFPPKPKDTLMISRTPEVTCVVVDVSQEDPEVQFNWYVDGVEVHNAKTKPREEQFNSTYRVVSVLTVLHQDWLNGKEYKCKVSNKGLPSSIEKTISKAKGQPREPQVYTLPPCQEEMTKNQVSLWCLVKGFYPSDIAVEWESNGQPENNYKTTPPVLDSDGSFFLYSKLTVDKSRWQEGNVFSCSVMHEALHNHYTQKSLSLSLG
light 2: DIVLTQSPATLSLSPGERATISCRASQSVSSYGQGFMHWYQQKPGQPPRLLIYGASSRATGIPARFSGSGSGTDFTLTISPLEPEDFAVYYCQQNKEDPWTFGGGTKLEIKRTVAAPSVFIFPPSDEQLKSGTASVVCLLNNFYPREAKVQWKVDNALQSGNSQESVTEQDSKDSTYSLSSTLTLSKADYEKHKVYACEVTHQGLSSPVTKSFNRGEC
notes: also called CD38VH1×CD28sup×CD3mid IgG4 FALA
binding result [9]: binds

B5: anti-CD28sup antigen binding domain (antibody, V domains shown)
VH: QVQLVQSGAEVVKPGASVKVSCKASGYTFTSYYIHWVRQAPGQGLEWIGSIYPGNVNTNYAQKFQGRATLTVDTSISTAYMELSRLRSDDTAVYYCTRSHYGLDWNFDVWGKGTTVTVSS
VL: DIQMTQSPSSLSASVGDRVTITCQASQNIYVWLNWYQQKPGKAPKLLIYKASNLHTGVPSRFSGSGSGTDFTLTISSLQPEDIATYYCQQGQTYPYTFGQGTKLEIK
notes: also called super agonist, "sup"
binding result [10]: binds

Results, then the binder that gave them:

binding result [9]: binds
B3: mAb2xCD28supxCD3mid IgG1 NNSA (other)
heavy 1: QVQLVQSGAEVVKPGASVKVSCKASGYTFTSYYIHWVRQAPGQGLEWIGSIYPGNVNTNYAQKFQGRATLTVDTSISTAYMELSRLRSDDTAVYYCTRSHYGLDWNFDVWGKGTTVTVSSSQVQLVESGGGVVQPGRSLRLSCAASGFTFTKAWMHWVRQAPGKQLEWVAQIKDKSNSYATYYADSVKGRFTISRDDSKNTLYLQMNSLRAEDTAVYYCRGVYYALSPFDYWGQGTLVTVSSRTASTKGPSVFPLAPSSKSTSGGTAALGCLVKDYFPEPVTVSWNSGALTSGVHTFPAVLQSSGLYSLSSVVTVPSSSLGTQTYICNVNHKPSNTKVDKKVEPKSCDKTHTCPPCPAPELLGGPSVFLFPPKPKDTLMISRTPEVTCVVVDVSHEDPEVKFNWYVDGVEVHNAKTKPREEQYNNASRVVSVLTVLHQDWLNGKEYKCKVSNKALPAPIEKTISKAKGQPREPQVCTLPPSRDELTKNQVSLSCAVKGFYPSDIAVEWESNGQPENNYKTTPPVLDSDGSFFLVSKLTVDKSRWQQGNVFSCSVMHEALHNHYTQKSLSLSPG
light 1: B2 light 1
heavy 2: QVQLVQSGAEVVKPGASVKVSCKASGYTFTSYAMHWVKEAPGQRLEWIGYIYPGQGGTNYNQKFQGRATLTADTSASTAYMELSSLRSEDTAVYFCARTGGLRRAYFTYWGQGTLVTVSSASTKGPSVFPLAPSSKSTSGGTAALGCLVKDYFPEPVTVSWNSGALTSGVHTFPAVLQSSGLYSLSSVVTVPSSSLGTQTYICNVNHKPSNTKVDKKVEPKSCDKTHTCPPCPAPELLGGPSVFLFPPKPKDTLMISRTPEVTCVVVDVSHEDPEVKFNWYVDGVEVHNAKTKPREEQYNNASRVVSVLTVLHQDWLNGKEYKCKVSNKALPAPIEKTISKAKGQPREPQVYTLPPCRDELTKNQVSLWCLVKGFYPSDIAVEWESNGQPENNYKTTPPVLDSDGSFFLYSKLTVDKSRWQQGNVFSCSVMHEALHNHYTQKSLSLSPG
light 2: B2 light 2
notes: also called CD38VH1×CD28sup×CD3mid IgG1 NNAS

binding result [10]: binds
B4: anti-CD28cvn antigen binding domain (antibody, V domains shown)
VH: QVQLQESGPGLVKPSQTLSLTCTVSGFSLSDYGVHWVRQPPGKGLEWLGVIWAGGGTNYNPSLKSRKTISKDTSKNQVSLKLSSVTAADTAVYYCARDKGYSYYYSMDYWGQGTTVTVSS
VL: DIVLTQSPASLAVSPGQRATITCRASESVEYYVTSLMQWYQQKPGQPPKLLIFAASNVESGVPARFSGSGSGTDFTLTINPVEANDVANYYCQQSRKVPYTFGQGTKLEIK
notes: also called anti-CD28evn; conventional agonist, "cvn"
